Source: US20220204599A1 (PRESTIGE BIOPHARMA, published 2022)

Assays:
[1] = molecular target: T1, collagen triple helix repeat containing-1 (CTHRC1) protein (Homo sapiens (Human), UniProt Q96CG8 31-243); assay: indirect ELISA, CTHRC1 coated at 5 µg/mL, anti-human Fc-HRP
T1 construct: The coated protein may in fact have been CTHRC1-His or CTHRC1-Fc
Experimental: The affinity of cCMAb45 and cCMAb96, which are anti-CTHRC1 chimeric antibodies, prepared in Example 1-3 to the CTHRC1 protein was verified. Indirect ELISA was performed to test the affinity of the antigens and antibodies.
100 μL of CTHRC1 was dispensed at a concentration of 5 μg/mL onto an immuno-plate and coated at 4° C. overnight. The next day, the coated CTHRC1 solution was discarded and blocked for 2 hours. Thereafter, the cCMAb45 and cCMAb96 antibodies were treated at different concentrations and reacted at room temperature for 2 hours, and the antibodies were discarded to remove the unbound antibodies, and then the plate was washed. The OD value was measured using the anti-human Fc-HRP as a second antibody that recognizes human constant regions. In particular, the higher OD value indicates higher affinity between CTHRC1 and the antibodies.

[2] = molecular target: T2, CTHRC1-His (Homo sapiens (Human), UniProt Q96CG8 30-243); assay: indirect ELISA, CTHRC1-His coated, re-measurement
T2 construct: also called antigen CTHRC1-His
T2 sequence (Q96CG8 other isoform, or with tags, fused parts or gaps limits assumed): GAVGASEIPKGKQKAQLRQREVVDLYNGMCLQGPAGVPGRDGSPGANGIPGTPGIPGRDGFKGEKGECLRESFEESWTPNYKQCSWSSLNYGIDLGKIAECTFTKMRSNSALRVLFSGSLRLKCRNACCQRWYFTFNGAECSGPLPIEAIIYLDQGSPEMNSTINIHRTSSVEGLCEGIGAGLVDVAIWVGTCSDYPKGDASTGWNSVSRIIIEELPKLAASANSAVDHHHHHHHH

T1 sequence (Q96CG8 31-243 limits assumed): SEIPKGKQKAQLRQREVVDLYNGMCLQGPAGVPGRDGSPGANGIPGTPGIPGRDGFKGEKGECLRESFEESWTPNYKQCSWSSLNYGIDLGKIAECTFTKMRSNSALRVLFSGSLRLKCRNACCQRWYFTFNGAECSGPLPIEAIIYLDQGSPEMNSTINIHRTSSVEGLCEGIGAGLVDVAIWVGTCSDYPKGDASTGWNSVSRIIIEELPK

Row | Binder | Kd [1] [nM] | binding result [2]
1 | hCMAb45 humanized anti-CTHRC1 antibody (antibody, V domains shown, Humanized IgG made by CDR grafting and expressed in HEK293F; also called SA2765; humanized 4H5) VH: QVQLVESGAEVKKPGASVKVSCKASGYSFTDYIILWVRQAPGQGLEWMGAINPYYGSTVYGQKFQGRLTITADGSMSTAYMELSSLRSEDTAVYYCARSGYGYDESAMDYWGQGTLVTVSS VL: DIVMTQTPLSLPVTPGEPASISCRSSKSLLNSDGFTYLDWYLQKPGQSPQLLIYLVSNRFSGVPDRFSGSGSGTDFTLKISRVEAEDVGVYYCFQSNYLPLTFGQGTKLEIK | – | binds
2 | hCMAb96 humanized anti-CTHRC1 antibody (antibody, V domains shown, Humanized IgG made by CDR grafting and expressed in HEK293F; also called SA2770; humanized 9E6) VH: QVQLVQSGAEVKKPGASVKVSCKASGYTFTSYWMHWVRQAPGQGLEWIGYIYPSSGTTNYNQKFQGRVTITADESTSTAYMELSPLRSEDTAVYYCTTESYWGQGTTVTVSS VL: DIQMTQSPSSLSASLGDTITITCHASQNINVWLAWYQQKPGKAPKLLIYKASNLHSGVPSRFSGSGSGTDFTLTISSLQPEDIATYYCQQGQSYPLTFGQGTKVEIK | – | binds

Results, then the binder that gave them:

Row | Kd [1] [nM] | binding result [2] | Binder
3 | 0.52 | – | cCMAb45 anti-CTHRC1 chimeric antibody (antibody, V domains shown, Detected with anti-human kappa light chain-HRP, so the light chain is kappa; also called chimeric 4H5) VH: EVQLQQSGPELVKPGASVKISCKASGYSFTDYIMLWVKQSHGKSLEWIGNINPYYGSTSYNLKFKGKATLTVDKSSSTAYMQLNSLTSEDSAVYYCARSGYGYDESAMDYWGQGTSVTVSS VL: DVLMTQTPLSLPVNIGDQASISCKSTKSLLNSDGFTYLDWYLQKPGQSPQLLIYLVSNRFSGVPDRFSGSGSGTDFTLKISRVEAEDLGVYYCFQSNYLPLTFGSGTKLEIK
4 | 0.43 | – | cCMAb96 anti-CTHRC1 chimeric antibody (antibody, V domains shown, Detected with anti-human kappa light chain-HRP, so the light chain is kappa; also called chimeric 9E6) VH: QVQLQQPGSELVRPGASVKLSCKASGYTFTSYWMHWVKQRPGQGLEWIGNIYPSSGTTNYDEKFKNKATLTVDTSSTTAYMHLSSLTSEDSAVYYCTTESYWGQGTTLTVSS VL: DIVMTQSPSSLSASLGDTITITCHASQNINVWLSWYQQKPGNIPKLLIYKASNLHTGVPSRFSGSGSGTGFTLTISSLQPEDIATYYCQQGQSYPLTFGGGTKLEIK
